The source of these data is PMC9606039, “Molecular analysis of a public cross-neutralizing antibody response to SARS-CoV-2” (Cell Reports, 2022).

This assay deals with T1, receptor-binding domain (RBD) (residues 319-541) of the SARS-CoV-2 spike (S) protein (SARS-CoV-2, ancestral Wuhan-Hu-1 …, UniProt P0DTC2).
T1 construct: also called SARS-CoV-2 RBD; wild-type RBD
Description: BLI. To be noted: both partners purified.

B1: 2-7 D54N Fab (Fab, V domains shown)
VH: QITLKESGPTLVKPTQTLTLTCTFSGFSLSTSGVGVGWIRQPPGKALEWLALIYWNDDKRYSPSLKSRLTITKDTSKNQVVLTMTNMDPVDTATYYCAHHKIERIFDYWGQGTLVTVSS
VL: QSALAQPASVSGSPGQSITISCTGTSSDVGAYNYVSWYQQHPGKAPKLMIYDVSKRPSGVSNRFSGSKSGNTASLTISGLQAEDEADYYCSSYTTSSTVFGGGTKLTVL
Take B1: the “fold weakening of KD against the wild-type Fab” value is ≥ 100 fold.
